Patent JP2018108089A (dated 2018)
Values belong to the binder of their own block, whether it stands above or below them.

Key:
[1] = biological target: T1, human tissue factor pathway inhibitor (TFPI) (human, UniProt P10646 29-304, limits assumed); test: ELISA, Fab from bacterial lysate on coated human TFPI
T1 construct: Bought protein; also called human TFPI; hTFPI
T1 sequence (looked up): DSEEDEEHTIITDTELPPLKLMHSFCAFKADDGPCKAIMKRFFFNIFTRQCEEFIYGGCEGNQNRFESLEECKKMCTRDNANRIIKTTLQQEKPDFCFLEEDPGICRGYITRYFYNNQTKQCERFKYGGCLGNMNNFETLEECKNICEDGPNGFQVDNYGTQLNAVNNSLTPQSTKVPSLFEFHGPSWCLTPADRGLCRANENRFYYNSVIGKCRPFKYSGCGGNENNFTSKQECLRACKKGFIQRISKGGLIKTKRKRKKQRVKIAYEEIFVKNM

[2] = biological target: T1, human tissue factor pathway inhibitor …; test: ELISA on coated human TFPI
[3] = biological target: T2, mouse tissue factor pathway inhibitor (TFPI) (mouse, UniProt O54819 29-289, limits assumed); test: ELISA on coated mouse TFPI
T2 construct: Bought protein; also called mouse TFPI; mTFPI
T2 sequence (looked up): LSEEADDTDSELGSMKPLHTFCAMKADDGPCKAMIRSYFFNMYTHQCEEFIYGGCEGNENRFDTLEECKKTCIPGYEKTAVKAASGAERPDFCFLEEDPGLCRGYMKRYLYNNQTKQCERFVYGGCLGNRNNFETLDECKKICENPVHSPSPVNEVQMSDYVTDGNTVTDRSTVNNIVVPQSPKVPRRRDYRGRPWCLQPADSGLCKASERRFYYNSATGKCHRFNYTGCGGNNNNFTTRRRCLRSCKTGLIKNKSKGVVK

[4] = biological target: T2, mouse tissue factor pathway inhibitor …; test: ELISA on coated mouse TFPI, IgG against Fab
[5] = biological target: T1, human tissue factor pathway inhibitor …; test: ELISA on coated human TFPI, IgG against Fab

binding result [1]: binds
B1: TP-2A8 (Fab, V domains shown)
VH: QVQLVESGGGLVQPGGSLRLSCAASGFTFRSYGMSWVRQAPGKGLEWVSSIRGSSSSTYYADSVKGRFTISRDNSKNTLYLQMNSLRAEDTAVYYCARKYRYWFDYWGQGTLVTVSS
VL: DIELTQPPSVSVAPGQTARISCSGDNLRNYYAHWYQQKPGQAPVVVIYYDNNRPSGIPERFSGSNSGNTATLTISGTQAEDEADYYCQSWDDGVPVFGGGTKLTVLG
notes: Human Fab (HuCAL Gold, E. coli TG1); also called Fab-2A8; TP-2A8-Fab

binding result [1]: binds
B2: TP-4B7 (Fab, V domains shown)
VH: QVQLQQSGPGLVKPSQTLSLTCAISGDSVSSNSAAWSWIRQSPGRGLEWLGIIYKRSKWYNDYAVSVKSRITINPDTSKNQFSLQLNSVTPEDTAVYYCARWHSDKHWGFDYWGQGTLVTVSS
VL: DIVMTQSPLSLPVTPGEPASISCRSSQSLVFSDGNTYLNWYLQKPGQSPQLLIYKGSNRASGVPDRFSGSGSGTDFTLKISRVEAEDVGVYYCQQYDSYPLTFGQGTKVEIKR
notes: Human Fab (HuCAL Gold, E. coli TG1)

EC50 [2]: 0.48 nM | EC50 [3]: 5.18 nM
B3: TP-2G6 (Fab, V domains shown)
VH: QVQLQQSGPGLVKPSQTLSLTCAISGDSVSSSSAAWSWIRQSPGRGLEWLGIIYYRSKWYNDYAVSVKSRITINPDTSKNQFSLQLNSVTPEDTAVYYCARHSMVGFDVWGQGTLVTVSS
VL: DIVLTQSPATLSLSPGERATLSCRASQYVTSSYLAWYQQKPGQAPRLLIYGSSRATGVPARFSGSGSGTDFTLTISSLEPEDFATYYCQQYSSSPITFGQGTKVEIKR
notes: Human Fab (HuCAL Gold, E. coli TG1); also called 2G6-Fab

EC50 [2]: 0.22 nM | EC50 [3]: 0.51 nM | fold improvement of EC50 against 2G6-Fab [4]: 10 fold | fold improvement of EC50 against 2G6-Fab [5]: 2 fold
B4: 2G6-IgG (antibody, V domains shown)
VH: B3 VH
VL: B3 VL
notes: Chimeric IgG: variable regions of TP-2G6 on mouse IgG1 constant regions, expressed in HKB11 cells; also called IgG-2G6; TP-2G6 after conversion to IgG
